For assay [1], the target named is high molecular weight binding protein (150K) in normal human serum (human). The assay can be described thus: radiolabelled IGF-1 incubated with serum; area under the curves of the high and low molecular weight peaks.
Assay [2] concerns the target high molecular weight binding protein (150K) in normal rat serum (rat). Described as above.

Consider O-glycosylated IGF-1 (ligand), for which the percent bound to the large molecular weight form compared to the authentic IGF-1 in assay [1] and in assay [2] was 50 to 60% each time.

The values above are taken from US5273966.
